# Assay: soluble on expression in E. coli; label from the status in PepcDB or PDB records
row,Sequence,soluble on expression in E. coli
1,MSPAFRAMDVEPRAKGVLLEPFVHQVGGHSCVLRFNETTLCKPLVPREHQFYETLPAEMRKFTPQYKGVVSVRFEEDEDRNLCLIAYPLKGDHGIVDIVDNSDCEPKSKLLRWTTNKKHHVLETEKTPKDWVRQHRKEEKMKSHKLEEEFEWLKKSEVLYYTVEKKGNISSQLKHYNPWSMKCHQQQLQRMKENAKHRNQYKFILLENLTSRYEVPCVLDLKMGTRQHGDDASEEKAANQIRKCQQSTSAVIGVRVCGMQVYQAGSGQLMFMNKYHGRKLSVQGFKEALFQFFHNGRYLRRELLGPVLKKLTELKAVLERQESYRFYSSSLLVIYDGKERPEVVLDSDAEDLEDLSEESADESAGAYAYKPIGASSVDVRMIDFAHTTCRLYGEDTVVHEGQDAGYIFGLQSLIDIVTEISEESGE,not soluble
2,MAHHHHHHMLYLKEIELGNYYICNLDDYPREYCVVDYDPNKVIKFLCPIVHNEGEEMKTYDSSYCFRYKGIKDRLIISNNEEQIYTTLPGIILENQILYDRYNLGIYLMPLKLEEDMSIVCVCDTKKEYKGITPYIKINIKKSNNLLGADSADQHIKGCDFGNNQGEHQFLTNSQSYEENLVCEIHANPGDIVGINCINYNEGDLQNYEVKLEPSNCFSTVSFSLYTLSFVKMNINNIFPDARYYPESSAFPKDPNFKKFSTTSYLWIPAHVPEDFLFFCSCRYAQGEGVAIYHVGSSAAAVEAV,not soluble
3,MGSDKIHHHHHHMQFTINHRTHYLYTDVVNYTIQKLRLTPQDGFGQRVKRWEIRVNGHLQRHDDAYGNAEHLLVLDTPHEEINILATGEVETGLDTPPAHDLLPREIYLRTTALTATDATLRNFAEQFRYDRFTGQILDEMMHAIVDKVPYYRGVTNVNTPAAEAFRSGHGVCQDHAHIFIACCRYLGIPARYVSGYLFTDDGSLMESHAWADACLPSGWISFDVSNRCRTNGVHVRLATGLDYSDACPVSGMRVGGGLETMTVGVHVSQLQSQQ,not soluble
4,MCNNEAKMSELLSVQSDAPAKKINLMDLTRQQMREFFKELGEKPFRADQLVKWIYHFGEDNFDNMTNINKKLREKLKAVAEIKAPEVAVEQRSADGTIKWAMQVGEQQVETVYIPEADRATLCVSSQVGCALACTFCSTAQQGFNRNLTVSEIIGQVWRASKIIGNFGVTGVRPITNVVMMGMGEPLLNVANVVPAMEIMLDDFAYGLSKRRVTLSTSGVVPALDNLSKMIDVALAISLHAPNDELRDEIVPINKKYNIKTLIDSVNRYLNVSNANHGKVTIEYVMLDHVNDGVEHAHQLAEVLKNTPCKINLIPWNPFPEAPYAKSSNTRIDRFQKTLMEYDFTVIIRKTRGDDIDAACGQLAGDVIDRTKRTAMKRQFGQNIGVTEVN,not soluble
5,MIKPYDFVPFLPYKPYDDVKAERGDGKIPIRVKTLTPVHIPSGEYTVSGDNSMIYKEFVKVNGVPVIPGTSFKGCIRSIAESISYSCLYIFDKQKKELIPEFKLEAQEKDHEKNKEQRNENGKKCIVSDMFGMPGQKSKIVFNDLRGVPNKYKLEIKGIPTSFRPNPDAEYYLENGKYKGYKFYKHGINGIQPKGNMLCEFAAENSLFEGEIIYKNLTEEQIRLLCFSLGLSGDINPKIGYGKNYFYGSIEVTSDAKWVEKAKQYKNIEKDDIKNNINLIISILNYKNAVTSVD,soluble
6,MGSDKIHHHHHHMDILQTANERMEQLAALMNKDIKQKVSADQKVKVGVDLGTSSIVFVVLDEHDVPLFGAFEFADAVRDGLVVNYRESVEVVTRLKERAEKCLGITLTHASGAIPPGTVGNNKKVVANVIESAGMEALYTIDEPTAAAAVLGLQDGAVVDVGGGTTGISVFENGEVIYTADEPTGGTHMTLVLAGYYGVPVEKAEQNKREQKDSSEHFSVMRPVVEKMAEITRVHLEKSPSEPLYIVGGASAYSQFKDTFESYLKTPVFQPNYPQYVTPLGIAMSSGSENL,not soluble
7,GGGVMHYTDKAALPADGEAREVAALFDTWNAALATGNPHKVADLYAPDGVLLPTVSNEVRASREQIENYFEMFLTKKPKGVINYRTVRLLDDDSAVDAGVYTFTLTDKNGKKSDVQARYTFVYEKRDGKWLIINHHSSAMPEVDTATATAAVTKAK,soluble
8,MGSDKIHHHHHHMIDPESLEALEAVVDAGSLSAAAGQLNKAVSAVGYHLRRLEEQIGVPLLDRSGYRLALTPEGKSVLAEGRPILERLRALGTFAERYHGGWEHQLRIVYDGALPAEVVIGAINALVEAGAPTHIELNVAYLGAVPFEFDRKQADVMIATAWEPRLDLIGHRLATLGFSLCCAAGHPLTMRTNVSLEELQRETELIIPGLAEDRSFDARHFRSRRILKVSDFNTKLIAIRRGLGFGWLPDYLASDLVRKGNLARVRLEGGNSYELQPVFALHRGAAPGRARQMLLDMLLLATWDTYVKPE,not soluble
9,MTFEEYQKEAQKTALYPEAYRLVYPALGLAGEAGELANKVKKVLRDHGGRLSEEAREAILAELGDVLWYVAQVATDLGESLEAVAQANLAKLRSRKERGRLGGDGDDR,soluble
10,MMVYPVKHSPLLRQPEHFIARDELKALVQKVTHNLVNIKDETGEFLLRLDDGRVIDTKGWAGWEWTHGVGLYGMYHYYQQTGDQTMRKIIDDWFADRFAEGATTKNVNTMAPFLTLAYRYEETRNPAYLPWLETWAEWAMNEMPRTDHGGMQHITLAEENHQQMWDDTLMMTVLPLAKIGKLLNRPEYVEEATYQFLLHVQNLMDKETGLWFHGWSYDGHHNFANARWARGNSWLTIVIPDFLELLDLPENNAVRRYLVQVLNAQIAALAKCQDESGLWHTLLDDPHSYLEASATAGFAYGILKAVRKRYVERHYAQVAEKAIRGIVKHISPEGELLQTSFGTGMGHDLDFYRHIPLTSMPYGQAMAMLCLTEYLRNYF,not soluble
11,MGGGGEDEYESLPTHSVPVHLTAGALAGAVEHCVMFPFDSVKTRMQSLCPCPETKCPTPVHSLMSIVKREGWLRPLRGVNAVAAGSMPAHALYFTVYEKMKGYLTGNSAGHSNTLAYGASGVVATLIHDAIMNPAEVVKQRMQMAFSPYGSSLECARCVYNREGVAAFYRSYTTQLAMNVPFQAIHFMSYEFWQHVLNPEHKYDPKSHLIAGGLAGGLAAALTTPMDCVKTVLNTQQAAEADPANRRIFLQARYRYRGISDAVRTIYSQRGLSGFSCGLQARVIFQVPATALSWSVYELFKFMLSFEGGHSS,not soluble
12,GAMGSMERASLIQKAKLAEQAERYEDMAAFMKGAVEKGEELSCEERNLLSVAYKNVVGGQRAAWRVLSSIEQKSNEEGSEEKGPEVREYREKVETELQGVCDTVLGLLDSHLIKEAGDAESRVFYLKMKGDYYRYLAEVATGDDKKRIIDSARSAYQEAMDISKKEMPPTNPIRLGLALNFSVFHYEIANSPEEAISLAKTTFDEAMADLHTLSEDSYKDSTLIMQLLRDNLTLWTADNAGEEGGEAPQEPQS,soluble
13,GARNSVLRGKKADELERIRLRPGGKKKYRLKHIVWAANKLDRFGLAESLLESKEGCQKILTVLDPMVPTGSENLKSLFNTVCVIWCIHAEEKVKDTEGAKQIVRRHLVAETGTAEKMPSTSRPTAPSSEKGGNY,soluble
14,MGSDKIHHHHHHLSTSQPAEPGDEIARLGALAADFRRRLELDPGAIYPAHAECLWRLGNLQIAQGDVEAGLLSISDSVGLYRAIAQAQPDSYAVQLASLLNSQSNMLAEASHLEEARAIASDAVEHARSAMDDYGDQARFVLVSALINLAGLKMRSGDTAGTVDELAQAVEVFRDGGTAGQPFLGSMVEALHRAAMAFTEVGLWNEAIDTRRLLIGLFGQAPPSAVVQLLMLTLQQASVGLAGTGDTAKALVHANEAVDLARMLFAADGQANRLALAQAVGNLAGRHHDAGSLKEALDLSLEAVDLFQDAVSMDPIHAVPSLIVTLDCMASILTALGLPDQAATVREQRSQLQETLEIIAPRAN,not soluble
15,TALSVLDLVMIGEGKTFADAIEESRQLARHVEQQHYSRYWIAEHHDMPGIGSAATSLVINEIANATRHIRVGAGGIMLPNHAPLVVAEQFGTLNTLHPGRIDLGLGRAPGTSGPTVRALRGAAPERDFGQDIAELRDYLADNGKRRVRGVPGAHDVPVWILGSSLFGADLAAKLGLPYAFASHFAPRYLLQAIAHYRANFQPSAQLAKPYVMVGMNLFAAASDAEADYLASSHRKWMLDLHVGRFGLLPKPQEGYLERLPDHERAVLDQVMACSVAGGPERVREGLRSLIEQTGADELMIDCRIHDPLARQRSHAYAAQ,not soluble
16,MGFEDLVEVTTMIADLTTDQREALLLTQLLGLSYADAAAVCGCPVGTIRSRVARARDALLADAEPDDLTG,soluble
17,MSLGPADGGGDLVGVAGRESWVQTVPYGMVVCPSGTFHMGQADEDVPATQINLNKQVTIGGFYMDETEITNNEYRQFMNVMLEDSVATLGEEYIMTELYPDTTVWVRDFSHHMGDPMMEYYYAHPAFDEYPVVGVDWWAAKYFCEWRTQHMNNWRAENGLWQMPRFRLPSEAEWEYAARGGRDMAKYPWGNPYIRNSKGCMLANFKPGRGNYYDDGFMYTSPVASYFSNDFGLYDMAGNISEWCEDAYYDAAVPIVWDLNPTYYNDDEVRKIIRGGSWKDIAYYLETGTRTFEYQDTSKSYIGFRTVMTYLGRSSGYEGHHHHHH,not soluble
18,MGSDKIHHHHHHMRIGCVLARKGKMMMNGELAGFTIPRLGMGTMALAIEGRPDRDTAIRTIHAGLDAGVRYLDTAWSYYLPSEPGTGTAKDLGYGEKLVRDALASWNGPRDEVLVATKTGYRRTMEIPAFVAPVSDSPESDTQGRDSEGCSRRPGGERQHLQAAGSQYGWMADSRPETMIRDAKESALHLGVDTLDLLYSHGPDPEVAYEDQVGALKQLLNEGVIRYAGISRVDNAQIDIAREILGDKLIAVQNQFSPSHPDPEHTMEHCAELGLAFVCWSPLGGFLDAFDQRAYDPFRTVAGNHGCSYQRVVLAWELSRYERLFTIPSARNPQEINDSFAATELTLTQDELAMLNASVDARRG,not soluble
19,MNQSCPNKTSFKIAFIQARWHADIVDEARKSFVAELAAKTGGSVEVEIFDVPGAYEIPLHAKTLARTGRYAAIVGAAFVIDGGIYDHDFVATAVINGMMQVQLETEVPVLSVVLTPHHFHESKEHHDFFHAHFKVKGVEAAHAALQIVSERSRIAALV,soluble
20,GPGSMLHDAPWHLSLAHRCLAPHGVVAIMGYATRVCVVAPEAARRDADDFMEDLQRTAREAAKMKDSKELRVALGRAIDISSSLDAGHADMYFPFRSTKRRWFTSEYAATPAQLAASYRALPEYQLLSREMPRYRQALISGRQKVQVGEETEKDEPVNVFRRQHGAEPLEVLQGCLQAQVMSLHGRNTPAMPPLRVQVRHFIITCSSRSVNAASEPFQLRSLRREIPQLK,not soluble
21,MGSDKIHHHHHHMAKPLFDQLLASAQQARAPFHTPGHKLGRAIATHLQQAWGSAIFQSDLPELPELDNLYAASGVLAESQAQAAEVFGADRSWFLVNGSTGGLLAAILTICSPGDRLLLPRNAHRSLLSGCILSGAMPVWITPPEAADFDLVGVPTPEQVATALAQDPQIKAVVLVSPTYEGVCADVAAIAAIAHNHNLPLIIDAAHGAHLGFHPDLPRSPLHEGADLVVQSTHKLLGALTQAAMLHCKGDRIDPERLSQSLALVQSSSPSYLLLASLEAATEQMRTSAQDLLQVTIDLARQAHQRLAELPGLQLPALKIGNREGFPQWDRTRLVINFQSCGWSGFCADEYLHEQWQVTAELPSLSNLVFHLSLGNRIEDIDRLVTACDRLLSQEHQEELPPRLPVWLEPETILSPRQAWFSRHQTVSAEQAIGAIAAECVCPYPPGIPVLLPGERISKSAVDYLRQVQTTGGILSGCADPELTTLRIVQDSDTIHASCLS,not soluble

# Reference: the DeepSol protein solubility set
